The values that follow come from patent US20240101668A1 (WUGEN, published 2024).

For experiment [1], the target named is T1, huCD33-G69-Fc recombinant protein (human, UniProt P20138 18-259).
T1 construct: extracellular domain; also called CD33 R69G
As to the kind of experiment: BLI. On the technique in general: BLI is a label-free optical method that tracks binding on a fibre tip over time.
Method: (§1) Discovered scFvs were analyzed for binding to huCD33-R69-His or huCD33-G69-Fc recombinant proteins (for anti-CD33 scFvs; for CLL-1 scFvs, huCLL1-K244-Avi-Tev-His or huCLL1-Q244-Avi-Tev-His were used; for FLT3, huFLT3-T227-His or huFLT3-M227-Fc were used) using BLI on a ForteBio Octet HTX instrument. Streptavidin-coated biosensors were loaded with biotinylated anti-V5 tag monoclonal antibody for 5 min and were then quenched and blocked with 20 μM amine-PEG2-Biotin for 5 min. scFvs were captured on biosensors from scFv clone periplasmic extracts. huCD33 (or huCLL-1, or huFLT3) proteins were then associated with the captured scFvs for 2 minutes, followed by dissociation with buffer (1×HBST [10 mM HEPES pH 7.4, 150 mM NaCl, 0.05% Tween-20], 1 g/L BSA) for 5 minutes. […] Data was fitted with 1:1 Langmuir equation and off-rate values were reported.

For experiment [2], the target named is T2, huCD33-R69-His recombinant protein (human, UniProt P20138 18-259).
T2 construct: extracellular domain
T2 sequence (P20138 18-259): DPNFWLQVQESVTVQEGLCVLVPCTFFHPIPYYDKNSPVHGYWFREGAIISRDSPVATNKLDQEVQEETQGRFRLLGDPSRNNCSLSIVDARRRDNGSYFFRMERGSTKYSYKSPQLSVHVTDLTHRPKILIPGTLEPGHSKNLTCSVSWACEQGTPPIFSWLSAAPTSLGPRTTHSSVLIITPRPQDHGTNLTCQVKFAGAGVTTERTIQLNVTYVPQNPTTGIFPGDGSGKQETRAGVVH
As to the kind of experiment: BLI.
Method: as §1

In experiment [3] the target is T3, huCD33-R69 stably expressed on Jurkat cells (human, UniProt P20138 18-364).
T3 construct: whole, on cells; >200,000 receptors per cell; also called CD33 WT; CD33^ARG69
T3 sequence (P20138 18-364): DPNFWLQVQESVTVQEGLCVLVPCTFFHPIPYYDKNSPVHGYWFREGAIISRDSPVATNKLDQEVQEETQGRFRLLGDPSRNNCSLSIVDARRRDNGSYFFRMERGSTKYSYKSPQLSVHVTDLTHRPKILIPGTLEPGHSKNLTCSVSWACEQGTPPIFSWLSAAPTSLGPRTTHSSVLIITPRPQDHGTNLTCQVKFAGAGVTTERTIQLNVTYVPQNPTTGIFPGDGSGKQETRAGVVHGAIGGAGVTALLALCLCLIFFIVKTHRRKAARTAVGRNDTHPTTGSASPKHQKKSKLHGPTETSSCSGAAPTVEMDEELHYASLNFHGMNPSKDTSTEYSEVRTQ
As to the kind of experiment: FACS on cells.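 Note: fixed Jurkat cells bearing either CD33 variant, barcoded by dye, exposed to myc-tagged scFv periplasmic extracts, detected with anti-myc PE antibody and read by flow cytometry.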

Experiment [4] concerns the target T4, huCD33-G69 stably expressed on Jurkat cells (human, UniProt P20138 18-364).
T4 construct: whole, on cells; >200,000 receptors per cell; also called CD33 Mutant; CD33 R69G
Briefly: FACS on cells.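 Note: fixed Jurkat cells bearing either CD33 variant, barcoded by dye, exposed to myc-tagged scFv periplasmic extracts, detected with anti-myc PE antibody and read by flow cytometry.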
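Throughout, for result: scFvs from periplasmic extracts captured on biosensors via anti-V5 antibody, exposed to recombinant huCD33 variants for 2 min, 5 min dissociation, scored as binding, no binding or ambiguous.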

T1 sequence (P20138 18-259 R69G): as the sequence (P20138 18-259) above, with R52G counted along it
T4 sequence (P20138 18-364 R69G): as the sequence (P20138 18-364) above, with R52G counted along it

B1: Polypeptide No. 40 (scFv, V domains shown)
VH: QVQLVQSGAEVKKPGASVKVSCKASGYTFTDYHMHWVRQAPGQGLEWMGWMSPNSGNTGYAQNFQGRVTMTRDTSTSTVYMELSSLRSEDTAVYYCARADYYGSDYVKFDYWGQGTLVTVSS
VL: DIQMTQSPSSLSASVGDRVTITCRVSQGISSYLNWYQQKPGKAPKLLIYEASTLESGVPSRFSGSGSGTDFTLTISSLQPEDFATYYCQQGYSTPPTFGQGTKVEIKR
notes: scFv
B1: the binding result is given as “binds” in experiment [1] and “no binding” in experiment [2]. Moreover, the “geometric mean MFI fold change over Jurkat parental” value (“geometric mean MFI fold change” for short) in experiment [3] is under 2 fold; in experiment [4] it was 10 to 30 fold.

B2: Polypeptide No. 41 (scFv, V domains shown)
VH: QVQLVQSGAEVKKPGASVKVSCKASGYTFPNYGISWVRQAPGQGLEWMGWINPNSGGTKYAQRFQGRVTMTRDTSTSTVYMELSSLRSEDTAVYYCARDRDILTGYYHFDYWGQGTLVTVSS
VL: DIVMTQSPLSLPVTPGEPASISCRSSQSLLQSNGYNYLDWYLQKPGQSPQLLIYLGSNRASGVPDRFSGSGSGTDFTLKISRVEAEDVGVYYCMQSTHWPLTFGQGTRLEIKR
notes: scFv
On to B2, for which the figures for the binding result in experiment [1] and in experiment [2] were “binds” and “no binding”, respectively. Moreover, the entries for the “geometric mean MFI fold change” value in experiment [3] and in experiment [4] were under 2 fold and 2 to 10 fold, respectively.

B3: Polypeptide No. 39 (scFv, V domains shown)
VH: EVQLLESGGGLVQPGGSLRLSCAASGFTFRNYGMGWVRQAPGKGLEWVSAISGSGGSTYYADSVKGRFTISRDNSKNTLYLQMNSLRAEDTAVYYCARVKFYGMDVWGQGTTVTVSS
VL: DIQMTQSPSSLSASVGDRVTITCRASQGISNDLAWYQQKPGKAPKLLIYGASNLETGVPSRFSGSGSGTDFTLTISSLQPEDFATYYCQQANSFPFTFGPGTKVDIKR
notes: scFv
Consider B3, for which the binding result is given as “binds” in experiment [1] and “no binding” in experiment [2]. For the same molecule, the “geometric mean MFI fold change” value in experiment [3] was under 2 fold; in experiment [4], 10 to 30 fold.

B4: Polypeptide No. 36 (scFv, V domains shown)
VH: QVQLVQSGAEVKKPGASVKVSCKASGGTFSSYAISWVRQAPGQGLEWLGIISPSGRSAGYGRKFQGRVTMTRDTSTSTVYMELSSLRSEDTAVYYCARTDYGGHKWYFDLWGRGTLVTVSS
VL: DIQMTQSPSSLSASVGDRVTITCQASQGINNYLNWYQQKPGKAPKLLIYAASTLQRGVPSRFSGSGSGTDFTLTISSLQPEDFATYYCQQSYQTPLTFGGGTKVEIKR
notes: scFv
Consider B4, for which the binding result in experiment [1] was “binds”; in experiment [2], “no binding”. The entries for the “geometric mean MFI fold change” value in experiment [3] and in experiment [4] were under 2 fold and 2 to 10 fold, respectively.

B5: Polypeptide No. 42 (scFv, V domains shown)
VH: QVQLVQSGAEVKKPGASVKVSCKASGYTFTDYFMHWVRQAPGQGLEWMGWINPNSGNTGYAQKFQGRVTMTRDTSTSTVYMELSSLRSEDTAVYYCARLNDYGDYGGPATLDYWGQGTLVTVSS
VL: DIQMTQSPSSLSASVGDRVTITCRASQGISNNLNWYQQKPGKAPKLLIYAASSLQSGVPSRFSGSGSGTDFTLTISSLQPEDFATYYCQQSYSTPPTFGQGTKLEIKR
notes: scFv
For the molecule B5, the binding result is “binds” in experiment [1] and “no binding” in experiment [2]. Further, the “geometric mean MFI fold change” value in experiment [3] was under 2 fold; in experiment [4] it was 10 to 30 fold.
